From the RNAGym collection of RNA variant scans (doi:10.1073/pnas.2313332121) come the findings set out here.

The labels stand for the following.
B1: TPR 5TU (parent)
chain: GGAUCUUCUCGAUCUAACAAAAAAGACAAAUCUGCCACAAAGCUUGAGAGCAUCUUCGGAUGCAGAGGCGGCAGCCUUCGGUGGCGCGAUAGCGCCAACGUUCUCAACUAUGACACGCAAAACGCGUGCUCCGUUGAAUGGAGUUUAUCAUG

Variants at the floor of the assay were thinned out.

The variants in this data set derive from B1. In words: polymerase ribozyme fitness, log enrichment relative to wild type (log ratio); higher = more active; in vitro selection for triplet polymerase activity. In a few lines: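 To select mutant libraries of each subunit of a heterodimeric triplet polymerase ribozyme, built by PCR and transcribed, each was annealed with a biotinylated primer, partner subunit and triplets, then incubated frozen at −7 °C. Extended constructs were gel-excised, captured on streptavidin beads and amplified by RT-PCR, in one round carried out in triplicate. Illumina sequencing of input and output libraries kept genotypes with ≥10 input reads and ≥1 read per output. Fitness is the base-2 logarithm of genotype enrichment relative to wild-type enrichment, from inverse-variance-weighted replicate averages.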
GGAUCUUCUCGAUAUAACAAAAAAGACAAAUCUGCCACAAAGCUUGAGAGCAUCUUCGGAUGCAGAGGCGGCAGCCUUCGGUGGCGCGAUAGCGCCAACGUGCUCAACUAUGACACGCAAAACGCGUGCUCCGUUGAAUGGAGUUUAUCAUG [C14A U102G]: the “polymerase ribozyme fitness (log ratio)” value was ≤ -4.2.

As for GGAUCUUCUCGAUACAACCCAAAAGACAAAUCUGCCACAAAGCUCGAGAGCAUCUUCGGAUGCAGAGGCGGCAGCCUUCGGUGGCUCGAUAGCGCCAACGUUCUCAACUAUGACACGCAAAACGCGUGCUCCGUUGAAUGGAGUUUAUCAUG [C14A U15C A19C A20C U45C G86U], the “polymerase ribozyme fitness (log ratio)” value is -4.11.

For the variant GGAUCUUCUCGAUAUAACAAAAAAGACAAAUCUGCCACAAAGCUUGAGAGCAUCUUCGGAUGCAGAGGCGGCAGCCUUCGGUAGCGCGAUAGCGCCAACGUUCUCAACUAUGACACGCAAAACGCGUGCUCCGUUGAAUGGAGUUUAUCAUG [C14A G83A], the “polymerase ribozyme fitness (log ratio)” value was -0.809.

In the case of GGAUCUUCUCGAUAUAACAAAAAAGACAAAUCUGCCACAAAGCUUGAGAGCAUCUUCGGAUGCAGAGGCGGCAGCCUUCGGUGGCGCGAGAGCGCCAACGUUCUCAACUAUGACACGCAAAACGCGUGCUCCGUUGCAUGGAGUUUAUCAUG [C14A U90G A137C], the “polymerase ribozyme fitness (log ratio)” value is ≤ -4.2.

Regarding GGAUCUUCUCGAUAUAACAAAAAAGACAAAUCUGCCACAAAGCUUGAGAGCAUCUUCGGAUACAGAGGCGGCAGCCUUCGGUGGAGCGAUAGCGCCAACGUUCUCAACUAUGACACGCAAAACGCGUGCUCCGUUGAAUGAAGUUUAUCAUG [C14A G62A C85A G141A], the “polymerase ribozyme fitness (log ratio)” value was -3.57.

Turning to GGAUCUUCUCGAUAUAACAAAAAAGACAAAUCUGCCACAAAGCUUGAGAGCAUCAUCGGAUGCAGAGGCGGCAGCCUUCGGUGGCGCGAUAGCGCCAACGUUCUCAACUAUGACACGCAAAACGCGUGCUCCGUUGAAUGGAGUUUAUCAUG [C14A U55A], the “polymerase ribozyme fitness (log ratio)” value is -1.9.

For GGAUCUUCUCGAUGUAACGAAAAAGACAAAUCUGCCACAAAGCUUAAGAGCAUCUUCGGAUGCAGAGGCGGGAGCCUUCGGUGUCGCGAUAGCGCCAACGUUCUCAACUAUGACACGCAAAACGCGUGCUCCGUUGAAUGGAGUUUAUCAUG [C14G A19G G46A C72G G84U], the “polymerase ribozyme fitness (log ratio)” value was ≤ -4.2.

Regarding GGAUCUUCUCGAUAUAACAAAAAAGACAAAUCUGCCACAAAGCUUGAGAGCAUCUUCGGAUUCAGAGGCGGCAGCCUUCGGUGGCGCGAUAGCACCAACGUUCUCAACUAUGACACGCAAAACGCGUGCUCCGUUGAAUGGAGUUUAUCAUG [C14A G62U G94A], the “polymerase ribozyme fitness (log ratio)” value is -2.9.

For GGAUCUUCUCGAUAUAACAAAAAAGACAAAUCUGCCACAAAGCUUGAGAGCAUCUUCGGAUGCAGAGGCGGCAGCCUUCAGUGGUGCGAUAGCGCCAACGUUGUCAACUAUGACACUCAAAACUCGUGCUCCGUUGAAUGGGGUUUAUCAUG [C14A G80A C85U C103G G117U G124U A142G], the “polymerase ribozyme fitness (log ratio)” value is ≤ -4.2.

As to GGAUCUUCUCGAUGUAACAGAAAUGACAAAUCUGCCACAAAGCUUGAGAGCAUCUUCGGAUGCAGAGGCGGGAGCCUUCGGGGGCGCGAUAGCGCCGACGCUGUCAACUAUGACACGCAAAACGCGUGCUCCGUUAAAUGGAGUUUAUCAUG [C14G A20G A24U C72G U82G A97G U101C C103G G136A], the “polymerase ribozyme fitness (log ratio)” value was ≤ -4.2.

Regarding GGAUCUUCUCGAUGUAACUAAAAAGACAAAUCUGCCACAAAGCUUGAGAGCAUCUUCGCAUGCAGAGGCGGCAGCCUUCGUUGGCGCGAUAGCGUCAACGUUCUCAACUAUGACACGCAAAACGCGUGCUCCGUUGAAUGAAGUUUAUCAUG [C14G A19U G59C G81U C95U G141A], the “polymerase ribozyme fitness (log ratio)” value is -3.74.

For GGAUCUUCUCGAUGUAGCAAAAAAGAUAAAUCUGCCACAAAGCUUGAGAGCAUCUUCGGAUGCAGAGGCGGCAGCCUUCGGUGGCGCGAUAGCGCGAACGUUCUCAACUAUGACACGCAAAGCGCGUGCUCCGUUGAAUGCAGUUUAUCAUG [C14G A17G C27U C96G A122G G141C], the “polymerase ribozyme fitness (log ratio)” value was ≤ -4.2.

Consider GGAUCUUCUCGAUAUAACAAAAAAGACAAAUCUGCCACAAAGCUUGAGAGCAUCUUCGGAUUCAGAGGCGGCAGCCUUCGGUGGCGCGAUAGCGCCAACGUUCUCAACUAUGACACGCAAAACGCGUGCUCCGUUGAAUGGAGUUUAUCAUG [C14A G62U], for which the “polymerase ribozyme fitness (log ratio)” value is -1.57.

On to GGAUCUUCUCGAUAUAACAAAAAAGACAAAUCUGCCACAAAGCUUGAGAGCAUCUUCGGAUGCAGAGGCGGCAGCCUUCCGUGGCUCGAUAGCGCCAACGUUCUCAACUAUGACACGUAAAACGCGUGCUCCGUUGAAUGGAGUUUAUCAUG [C14A G80C G86U C118U], for which the “polymerase ribozyme fitness (log ratio)” value is ≤ -4.2.

Take GGAUCUUCUCGAUGUAACAAUAAAGACAAUCCUGCCACAAAGCUUGAGAGCAUCUUCGGAUGCAGAGGCGGCAGCCUUCGGUGGCGCGAUAGCGCCAACGUUCUCAACUAUGACACGCAAAACGCGUGCUCCGUUGAAUGGAGUUUAUCAUG [C14G A21U A30U U31C]: the “polymerase ribozyme fitness (log ratio)” value is ≤ -4.2.

For GGAUCUUCUCGAUGUAACCAAAAAGACAAAUCUGCCACAAAGCUUGAGAGCAUCUUCGGAUGCAGAGGCGGCAGCCUUCGGUGGCGCGAUAGCGCCAACGUUCUCAACUAUGACACGCAAAACGCGUGCUCCGUUGAAUGGAGUUUAUCAUG [C14G A19C], the “polymerase ribozyme fitness (log ratio)” value is -1.66.

Consider GGAUCUUCUCGAUGUAACAUAAAAGACAAAUCUGCCACAAAGCUUGAGAACAUCUACGGAUGCAUAGGCGGCAGCCUUCGGUGGCGCGAUAGAGCCAACGUUCUCAACUAUGACACGCAAAACGCGUGCUACGUUGAAUGGAGUUUAUCAUG [C14G A20U G50A U56A G65U C93A C131A], for which the “polymerase ribozyme fitness (log ratio)” value was ≤ -4.2.

For GGAUCUUCUCGAUAUAACAAAAAAGACAAAUCUGCCACAAAGCUUGAGAGCAUCUUCGCAUGCAGAGGCGGCAGCCUGCGGUGGCGCGAUAGCGCUAACGUUCUCAACUAUGACACGCAAAACGCGUGCUCCGUUGAAUGGAGUUUAUCAUG [C14A G59C U78G C96U], the “polymerase ribozyme fitness (log ratio)” value was ≤ -4.2.

In the case of GGAUCUUCUCGAUAUAACAAAAAAGACAAAUCUGCCACAAAGCUUGAGAGCAUCUUCGGAUGCAGAGGCGGCAGCCUUCGGUGGCGCGAUAGCGCCAACGGUCUCAACUAUGACACGCAAAACGCGUGCUCCGUUGAAUGGAGUUUAUCAUG [C14A U101G], the “polymerase ribozyme fitness (log ratio)” value is -1.35.
